Our source for the binding result and O.D. values is US20200299373A1 (NEURACLE SCIENCE, published 2020).

One assay addresses T1, FAM19A5 mutant M6 (human).
T1 construct: Expressed on phage; Region EP6 is replaced with the FAM19A1-4 consensus
T1 chain: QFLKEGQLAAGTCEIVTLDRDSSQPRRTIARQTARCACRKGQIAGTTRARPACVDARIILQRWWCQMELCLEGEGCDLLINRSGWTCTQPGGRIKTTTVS
The assay is described as follows: ELISA with phage-displayed FAM19A5 mutants.

The next assay has as its target T2, FAM19A5 mutant M7 (human).
T2 construct: Expressed on phage; Region EP7 is replaced with the FAM19A1-4 consensus
T2 chain: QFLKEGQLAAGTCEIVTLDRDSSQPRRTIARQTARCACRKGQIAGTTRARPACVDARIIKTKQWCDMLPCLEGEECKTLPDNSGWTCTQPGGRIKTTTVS
The assay is described as follows: ELISA with phage-displayed FAM19A5 mutants. Background: An ELISA detects its analyte on a solid surface through an enzyme-linked reagent.

For a further assay, the target named is T3, FAM19A5 mutant M1 (human).
T3 construct: Region EP1 is replaced with the FAM19A1-4 consensus; The fusion to the phage protein is not described
T3 chain: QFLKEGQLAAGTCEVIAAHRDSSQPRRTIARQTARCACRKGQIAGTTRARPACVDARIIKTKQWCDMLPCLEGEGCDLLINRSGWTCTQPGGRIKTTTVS
Kind of assay: ELISA with phage-displayed FAM19A5 mutants.

The target of a further assay is T4, FAM19A5 mutant M8 (human).
T4 construct: Expressed on phage; Region EP8 is replaced with the FAM19A1-4 consensus
T4 chain: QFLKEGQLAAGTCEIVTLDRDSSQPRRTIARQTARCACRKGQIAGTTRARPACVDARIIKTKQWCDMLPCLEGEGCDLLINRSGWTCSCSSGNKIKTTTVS
The assay is described as follows: ELISA with phage-displayed FAM19A5 mutants.

For another assay, the target named is T5, FAM19A5 mutant M3 (human).
T5 construct: Expressed on phage; Region EP3 is replaced with the FAM19A1-4 consensus
T5 chain: T3 chain with V15I, I16V, A17T, A18L, H19D, R27I, T28E, I29E, A30R, R31S
The assay is described as follows: ELISA with phage-displayed FAM19A5 mutants.

The next assay addresses T6, FAM19A5 mutant M4 (human).
T6 construct: Expressed on phage; Region EP4 is replaced with the FAM19A1-4 consensus
T6 chain: T3 chain with V15I, I16V, A17T, A18L, H19D, A34V, R35K, A37S, R39F, K40P
Kind of assay: ELISA with phage-displayed FAM19A5 mutants.

Another assay has as its target T7, FAM19A5 mutant M2 (human).
T7 construct: Expressed on phage; It has substitutions at amino acid residues 21-25 (EP2)
T7 chain: T3 chain with V15I, I16V, A17T, A18L, H19D, D21C, S22C, S23N, Q24K, P25N
Kind of assay: ELISA with phage-displayed FAM19A5 mutants.

Assay [1] deals with T8, FAM19A5 epitope fragment F2 conjugated to BSA (human, conjugated to BSA).
T8 peptide: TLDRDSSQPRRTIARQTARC
The assay is described as follows: ELISA on coated BSA-conjugated peptide. The procedure: Overlapping peptide fragments (F1-F6, See FIG. 1) of the human FAM19A5 protein were synthesized and conjugated to BSA. Binding of the different anti-FAM19A5 antibodies to the BSA-conjugated peptide fragments F1-F6 was determined by ELISA assay. Briefly, FAM19A5 fragment F1-F6 (diluted to 1 μg/mL in 50 mM carbonate buffer (Biosesang) or to 20 μg/mL for high concentration analysis) were used to coat the wells of 96-well immuno plates (Thermo Scientific) (100 μL/well) overnight at 4° C. and then subsequently washed twice in 1×PBS. The plates were then blocked with the blocking buffer (100 μL/well) for 1 hour at room temperature. During the 1-hour incubation, the relevant anti-FAM19A5 antibodies were diluted to 1 μg/mL (or 20 μg/mL for high concentration analysis) in the diluent buffer. Once the plates were washed (2× using 1×PBS), the diluted anti-FAM19A5 antibodies were added to the appropriate wells, and the plates were incubated at room temperature for 1 hour. The plates were subsequently washed for a total of five times using the washing buffer. […] The absorption value of each of the wells was detected at 492 nm using a 96-well microplate reader (Molecular Device).

Assay [2] has as its target T9, FAM19A5 epitope fragment F1 conjugated to BSA (human, also: conjugated to BSA).
T9 peptide: QLAAGTCEIVTLDR
The assay is described as follows: ELISA on peptide-BSA coated on the plate. The procedure: (§1) Overlapping peptide fragments (F1-F6, See FIG. 1) of the human FAM19A5 protein were synthesized and conjugated to BSA. Binding of the different anti-FAM19A5 antibodies to the BSA-conjugated peptide fragments F1-F6 was determined by ELISA assay. Briefly, FAM19A5 fragment F1-F6 (diluted to 1 μg/mL in 50 mM carbonate buffer (Biosesang) or to 20 μg/mL for high concentration analysis) were used to coat the wells of 96-well immuno plates (Thermo Scientific) (100 μL/well) overnight at 4° C. and then subsequently washed twice in 1×PBS. The plates were then blocked with the blocking buffer (100 μL/well) for 1 hour at room temperature. During the 1-hour incubation, the relevant anti-FAM19A5 antibodies were diluted to 1 μg/mL (or 20 μg/mL for high concentration analysis) in the diluent buffer. Once the plates were washed (2× using 1×PBS), the diluted anti-FAM19A5 antibodies were added to the appropriate wells, and the plates were incubated at room temperature for 1 hour. The plates were subsequently washed for a total of five times using the washing buffer. Next, the ODP substrate (prepared by dissolving one ODP tablet (0-phenylenediamine Dihydrochloride, Thermo) into 9 mL of sterilized deionized water and 1 mL of 10× stable Peroxide Stable buffer (Theromo)) was added to each of the wells, and the color change reaction was allowed to occur for 10 minutes. This reaction was stopped by adding 100 μL of 2N H2SO4 (Daejung) to the wells. The absorption value of each of the wells was detected at 492 nm using a 96-well microplate reader (Molecular Device).

Assay [3] concerns the target T10, FAM19A5 epitope fragment F3 conjugated to BSA (human, conjugated to BSA).
T10 peptide: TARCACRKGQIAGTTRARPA
The assay is described as follows: ELISA on peptide-BSA coated on the plate. The procedure:
as §1

The target in assay [4] is T11, FAM19A5 epitope fragment F6 conjugated to BSA (human, conjugated to BSA).
T11 peptide: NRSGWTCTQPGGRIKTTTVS
The assay is described as follows: ELISA on peptide-BSA coated on the plate. The method, then: as §1

The target of assay [5] is T12, FAM19A5 epitope fragment F4 conjugated to BSA (human, conjugated to BSA).
T12 peptide: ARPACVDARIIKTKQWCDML
The assay is described as follows: ELISA on peptide-BSA coated on the plate. The procedure: as §1

The target in assay [6] is T8, FAM19A5 epitope fragment F2 conjugated …. Kind of assay: ELISA on peptide-BSA coated on the plate. The method, then: as §1
In assay [7] the target is T13, FAM19A5 epitope fragment F5 conjugated to BSA (human, conjugated to BSA).
T13 peptide: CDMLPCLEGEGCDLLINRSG
The assay is described as follows: ELISA on peptide-BSA coated on the plate. The procedure: as §1

The target in assay [8] is T9, FAM19A5 epitope fragment F1 conjugated …. The assay is described as follows: ELISA, antigen coated on the plate, antibody in solution, absorbance at 492 nm. The method, then:
as §1

The target of assay [9] is T10, FAM19A5 epitope fragment F3 conjugated …. The description is as above. The method, then:
as §1

Assay [10] deals with T11, FAM19A5 epitope fragment F6 conjugated …. The description is as above. The procedure: as §1
Assay [11] concerns the target T12, FAM19A5 epitope fragment F4 conjugated …. Described as above. The method, then: as §1
For assay [12], the target named is T8, FAM19A5 epitope fragment F2 conjugated …. The description is as above. The method, then: as §1
Assay [13] addresses T13, FAM19A5 epitope fragment F5 conjugated …. The description is as above. The procedure: as §1

Substitutions are numbered along the chain they refer to. Where no end group is shown, it is not given here.

B1: anti-FAM19A5 antibody 1-28 (antibody, V domains shown)
VH: AVTLDESGGGLQTPGGALSLVCKASGFDFSDYGMGWVRQAPGKGLEWVAAIRSDGSNPSYGSAVKGRATISKDNGRSTVRLQLNNLRAEDTATYYCAKDGNGYCALDAYRSGGYSCGVYPGSIDAWGHGTEVIVSS
VL: ALTQPSSVSANLEGTVEITCSGSGYGYGWYQQKSPGSAPVTVIYQNDKRPSDIPSRFSGSKSGSTGTLTITGVQVEDEAVYYCGSEDSSTLAGIFGAGTTLTVL
notes: Chicken-derived scFv clone; also called Anti-FAM19A5 ("1-28")
In the case of B1, the binding result with FAM19A5 mutant M6, in the assay with FAM19A5 mutant M7, with FAM19A5 mutant M1, with FAM19A5 mutant M8, in the assay with FAM19A5 mutant M3 and with FAM19A5 mutant M4 was “binds” each time. Also, the values for the binding result (with FAM19A5 mutant M2; in [1]) were “no binding” and “binds”, respectively.

B2: anti-FAM19A5 antibody 2-13 (antibody, V domains shown)
VH: AVTLDESGGGLQTPGGALSLVCKASGFTFSSHGMFWVRQTPGKGLEYVAEITNDGSGTNYGSAVKGRATISRDNGQSTVRLQLNNLRAEDTGTYFCARSTYECPGGFSCWGDTGQIDAWGHGTEVIVSS
VL: ALTQPSSVSANPGETVKITCSGGSYSYGWFQQKSPGSALVTVIYWDDERPSDIPSRFSGALSGSTNTLTITGVQADDEAVYFCGTEDISGTAGVFGAGTTLTVL
notes: Chicken-derived scFv clone; also called Anti-FAM19A5 ("2-13")
In the case of B2, the binding result in assay [2], in [3], in [4], in assay [5], in assay [6] and in assay [7] was “no binding” each time. In addition, the binding result is “binds” with FAM19A5 mutant M6; “binds” in the assay with FAM19A5 mutant M7; “binds” with FAM19A5 mutant M1; “no binding” in the assay with FAM19A5 mutant M8; “binds” in the assay with FAM19A5 mutant M3; “no binding” in the assay with FAM19A5 mutant M4. Further, the binding result with FAM19A5 mutant M2 was “binds”. The O.D. in assay [8] is 0.06; in assay [9], 0.06; in [10], 0.06; in assay [11] it was 0.05; in assay [12], 0.06; in [13], 0.05.

B3: anti-FAM19A5 antibody 1-65 (antibody, V domains shown)
VH: AVTLDESGGGLQTPGGALSLVCKASGFTFSSYQMGWVRQAPGKGLEWVGVINKSGSDTSYGSAVKGRATISRDNGQSTVRLQLNNLRAEDTGTYFCAKGSASYITAATIDAWGHGTEVIVSS
VL: ALTQPSSVSANPGETVKITCSGGGSSGYGYGWYQQKSPSSAPLTVIYWNDKRPSDIPSRFSGSKSGSTHTLTITGVQAEDEAVYFCGNDDYSSDSGYVGVFGAGTTLTVL
As for B3, the binding result (in assay [2]; in [3]; in assay [4]; in [5]; in assay [6]; with FAM19A5 mutant M6) was “no binding” throughout. The binding result is recorded as “no binding” with FAM19A5 mutant M7; “binds” with FAM19A5 mutant M1; “no binding” with FAM19A5 mutant M8; “binds” in the assay with FAM19A5 mutant M3; “binds” with FAM19A5 mutant M4; “binds” with FAM19A5 mutant M2. Moreover, the O.D. in assay [8] was found to be 0.06; in assay [9], 0.06; in assay [10], 0.05; in assay [11] it was 0.06; in assay [12], 0.06; in assay [13], 1.5.

B4: anti-FAM19A5 antibody 3-2 (antibody, V domains shown)
VH: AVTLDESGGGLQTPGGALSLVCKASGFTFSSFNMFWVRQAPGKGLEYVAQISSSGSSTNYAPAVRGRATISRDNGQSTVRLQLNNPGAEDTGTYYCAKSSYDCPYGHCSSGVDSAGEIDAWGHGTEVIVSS
VL: ALTQPSSVSANPGETVKITCSGGGSYAGSYYYGWYQQKAPGSAPVTLIYESNKRPSDIPSRFSGSTSGSTATLTITGVQADDEAIYYCGSWDSSNGGIFGAGTTLTVL
notes: The text reports one result for both formats, so one molecule is written here; also called h3-2; m3-2
Consider B4, for which the binding result in the assay with FAM19A5 mutant M6, with FAM19A5 mutant M7, in the assay with FAM19A5 mutant M1, with FAM19A5 mutant M8, in the assay with FAM19A5 mutant M3 and with FAM19A5 mutant M4 was “binds” each time. In the assay with FAM19A5 mutant M2, the binding result was “no binding”. The same molecule showed an O.D. in assay [12] of 3.3.
